Experimental data taken from doi:10.1101/2025.03.18.644018v1.

Columns and labels:
purified protein [1] = substrate: O=C(O)C[C@H](O)C(=O)O; test: purified protein; conditions: equimolar mixture, forward, saturating NAD, MnCl2, pH 6.5, 30°C
purified protein [2] = substrate: CC(=O)C(=O)O; test: purified protein; assay type: biochemical, Glycine max; conditions: reverse reaction, NaHCO3, NADPH, MgCl2, pH 6.5, 30°C

| Protein | K0.5 (purified protein [1]) [mM] | kcat (purified protein [1]) [s⁻¹] | K0.5 (purified protein [2]) [mM] | kcat (purified protein [2]) [s⁻¹] |
| --- | --- | --- | --- | --- |
| NAD-ME1 + NAD-ME2.3 (Glycine max) (protein) chain 1: PSIVHKRSLDILHDPWFNKGTAFSMTERDRLDLRGLLPPNVMSPDLQIERFMVDLKRLEVQARDGPSDPNALAKWRILNRLHDRNETMYYKVLIAKIEEYAPIVYTPTVGLVCQNYSGLFRRPRGMYFSAEDRGEMMSMVYNWPAEQVDMIVVTDGSRILGLGDLGVQGIGIAIGKLDLYVAAAGINPQRVLPVMIDVGTNNEKLLEDPLYLGLQQHRLDGDDYLAVVDEFMEAVFTRWPNVIVQFEDFQSKWAFKLLQRYRNTYRMFNDDVQGTAGVAIAGLLGAVRAQGRPLIDFPKQKIVVAGAGSAGIGVLNAARKTMARMLGNNEVAFESAKSQFWVVDAQGLITEGRENIDPDALPFARNLKEMDRQGLREGASLVEVVKQVKPDVLLGLSAVGGLFSKEVLEALKGSTSTRPAIFAMSNPTKNAECTAEEAFSILGDNIIFASGSPFSNVDLGNGHIGHCNQGNNMYLFPGIGLGTLLSGARIVSDGMLQAAAERLATYMSEEEVLKGIIFPSTSRIRDITKQVATAVIKEAVEEDLAEGYHGMDARELQKLSEDEIAEYVQNNMWSPEYPTLVYKKE chain 2: CIVHKRGADILHDPWFNKDTGFPLTERDRLGLRGLLPPRVISFEQQYDRFMNSFRSLENNTQGQPDKVVSLAKWRILNRLHDRNETLYYRVLIDNIKEFAPIIYTPTVGLVCQNYSGLFRRPRGMYFSAKDKGEMMSMIYNWPAHEVDMIVLTDGSRILGLGDLGVQGIGIPIGKLDVYVAAAGINPQRILPVMLDVGTNNQKLLEDRLYLGLRQPRLEGEEYLSIVDEFMEAVHARWPKAIVQFEDFQMKWAFETLKRYQKRFCMFNDDIQGTAGVALAGILGTVRAQGRPLTDFVNQKIVVVGAGSAGLGVLKMAIQTVAKISGCSELAAKSQFYLIDKDGLVTTERNSLDPAAAPFAKNPRDIEGLTEGASIIEVVKKIRPHVLLGLSGVGGIFNEEVLKAMRESVSTKPAIFAMSNPTMNAECTSIDAFKHAGENIVFASGSPFENVDLGNGKVGHVNQANNMYLFPGIGLGTLLSGAHLITDGMLQAASECLASYMAEEDILKGILYPSVDSIRDVTAEVGAAVLRAAVEEELAEGHGDVGPKELSHMSKDEAVEYVRSNMWYPVYSPLVHEK | 0.2 ± 0.1 | 338.3 ± 15.8 |  |  |
| NAD-ME1 + NAD-ME2.4 (Glycine max) (protein) chain 1: PSIVHKRSLDILHDPWFNKGTAFSMTERDRLDLRGLLPPNVMSPDLQIERFMVDLKRLEVQARDGPSDPNALAKWRILNRLHDRNETMYYKVLIAKIEEYAPIVYTPTVGLVCQNYSGLFRRPRGMYFSAEDRGEMMSMVYNWPAEQVDMIVVTDGSRILGLGDLGVQGIGIAIGKLDLYVAAAGINPQRVLPVMIDVGTNNEKLLEDPLYLGLQQHRLDGDDYLAVVDEFMEAVFTRWPNVIVQFEDFQSKWAFKLLQRYRNTYRMFNDDVQGTAGVAIAGLLGAVRAQGRPLIDFPKQKIVVAGAGSAGIGVLNAARKTMARMLGNNEVAFESAKSQFWVVDAQGLITEGRENIDPDALPFARNLKEMDRQGLREGASLVEVVKQVKPDVLLGLSAVGGLFSKEVLEALKGSTSTRPAIFAMSNPTKNAECTAEEAFSILGDNIIFASGSPFSNVDLGNGHIGHCNQGNNMYLFPGIGLGTLLSGARIVSDGMLQAAAERLATYMSEEEVLKGIIFPSTSRIRDITKQVATAVIKEAVEEDLAEGYHGMDARELQKLSEDEIAEYVQNNMWSPEYPTLVYKKE chain 2: CIVHKRGADILHDPWFNKDTGFPLTERDRLGLRGLLPPRVISFEQQYDRFMNSFRSLENNTQGQPDKVVSLAKWRILNRLHDRNETLYYRVLIDNIKEFAPIIYTPTVGLVCQNYSGLFRRPRGMYFSAKDKGEMMSMIYNWPAHEVDMIVLTDGSRILGLGDLGVQGIGIPIGKLDVYVAAAGINPQRILPVMLDVGTNNQKLLEDRLYLGLRQPRLEGEEYLSIIDEFMEAVHARWPKAIVQFEDFQMKWAFETLKRYQKKFCMFNDDIQGTAGVALAGLLGTVRAQGRPLTDFVNQKIVVVGAGSAGLGVLKMAIQAVAKISGCSELAAKSQFYLIDKDGLVTTERNNLDPAAAPFAKNPRDIEGLTEGASIIEVVKKIRPHVLLGLSGVGGIFNEEVLKAMRESVSTKPAIFAMSNPTMNAECTAIDAFKHAGENMVFASGSPFENVDLGNGIVGHVNQANNMYLFPGIGLGTLLSGAHLITDGMLQAAAECLASYMAEEDILKGILYPSVDSIRDVTAEVGAAVLRAAVEEELAEGNGDVGPKELSHMSKDETVEYVRSNMWYPVYSPLVHEK | 0.6 ± 0.2 | 393.6 ± 63.8 |  |  |
| NADP-ME1.1 (Glycine max) (protein) SMTPSSSSSSRSGDRNGSVVMETPLKELKKESTVADVDDNAISAGGPQDVYGEDRATEDHFVTPWSVSVASGYTLLRDPHFNKGLAFTEDERDAHYLRGLLPPSVIPQETQVKKMIQHVRQYQVPLQKYMAMMDLQERNERLFYKLLIDHVEELLPVVYTPTVGEACQKYGSIFMHPQGLYISLKEKGKIREVLRNWPEKNIQVIVVTDGERILGLGDLGCQGMGIPVGKLSLYTALGGVRPSACLPITIDVGTNNEKLLNDELYIGLKQRRATGQEYAELMHEFMTAVKQTYGEKVLIQFEDFANHNAFNLLEKYRSTHLVFNDDIQGTASVVLAGLVASLKLVGGNLADHRFLFLGAGEAGTGIAELIALETSKQTNAPLEEVRKNIWLVDSKGLIVSSRKDSLQHFKKPWAHEHEPVKNLLDAVNKIKPTVLIGTSGQGRTFTKEVIEAMASINKRPIILSLSNPTSQSECTAEEAYKWSQGRAIFASGSPFPPVEYEGKVFVPGQANNAYIFPGFGLGLIMSGTIRVHDDLLLAASEALAAQVSQENFDKGLIYPPFTNIRKISAHIAANVAAKAYELGLATRLPQPKDLVKFAESCMYTPAYRSYR |  |  | 5.1 ± 0.5 | 202.4 ± 6.9 |
